Measured values as given in article PMC4737671 (International Journal of Biological Sciences, 2016).

Biological target: the molecule itself
Experiment: atomic force microscopy

Protein | binding result | stoichiometry N
BRCA1 281-701aa (domain or fragment, human, UniProt P38398 281-701, looked up) SSLQHENSSLLLTKDRMNVEKAEFCNKSKQPGLARSQHNRWAGSKETCNDRRTPSTEKKVDLNADPLCERKEWNKQKLPCSENPRDTEDVPWITLNSSIQKVNEWFSRSDELLGSDDSHDGESESNAKVADVLDVLNEVDEYSGSSEKIDLLASDPHEALICKSERVHSKSVESNIEDKIFGKTYRKKASLPNLSHVTENLIIGAFVTEPQIIQERPLTNKLKRKRRPTSGLHPEDFIKKADLAVQKTPEMINQGTNQTEQNGQVMNITNSGHENKTKGDSIQNEKNPNPIESLEKESAFKTKAEPISSSISNMELELNIHNSKAPKKNRLRRKSSTRHIHALELVVSRNLSPPNCTELQIDSCSSSEEIKKKKYNQMPVRHSRNLQLMEGKEPATGAKKSNKPNEQTSKRHDSDTFPELK | binds | 
BRCA1 fragment 421-988aa (domain or fragment, human, UniProt P38398 421-988, looked up) EYSGSSEKIDLLASDPHEALICKSERVHSKSVESNIEDKIFGKTYRKKASLPNLSHVTENLIIGAFVTEPQIIQERPLTNKLKRKRRPTSGLHPEDFIKKADLAVQKTPEMINQGTNQTEQNGQVMNITNSGHENKTKGDSIQNEKNPNPIESLEKESAFKTKAEPISSSISNMELELNIHNSKAPKKNRLRRKSSTRHIHALELVVSRNLSPPNCTELQIDSCSSSEEIKKKKYNQMPVRHSRNLQLMEGKEPATGAKKSNKPNEQTSKRHDSDTFPELKLTNAPGSFTKCSNTSELKEFVNPSLPREEKEEKLETVKVSNNAEDPKDLMLSGERVLQTERSVESSSISLVPGTDYGTQESISLLEVSTLGKAKTEPNKCVSQCAAFENPKGLIHGCSKDNRNDTEGFKYPLGHEVNHSRETSIEMEESELDAQYLQNTFKVSKRQSFAPFSNPGNAEEECATFSAHSGSLKKQSPKVTFECEQKEENQGKNESNIKPVQTVNITAGFPVVGQKDKPVDNAKCSIKGGSRFCLSSQFRGNETGLITPNKHGLLQNPYRIPPLFPIKS |  | 2
